In experiment [1] the target is T1, TGM1 full-length (D1/2/3/4/5), aa 19-422 (Heligmosomoides polygyrus, UniProt A0A2D1LW19 19-422, 125I (chloramine T) in the cross-linking assays; biotin (EZ-Link Sulfo-NHS-LC-Biotin) in the pull-downs; Alexa Fluor 488 in flow cytometry; no label named for ITC).
T1 construct: TGF-β mimic TGM1, Heligmosomoides polygyrus, GenBank MG099712 (422-aa protein), aa 19-422, omitting the parasite-encoded signal peptide; also called TGM1-FL; FL; source: HEK293 (pSecTag2A), purified (HiTrap nickel chelating, Superdex 75 as needed)
T1 sequence: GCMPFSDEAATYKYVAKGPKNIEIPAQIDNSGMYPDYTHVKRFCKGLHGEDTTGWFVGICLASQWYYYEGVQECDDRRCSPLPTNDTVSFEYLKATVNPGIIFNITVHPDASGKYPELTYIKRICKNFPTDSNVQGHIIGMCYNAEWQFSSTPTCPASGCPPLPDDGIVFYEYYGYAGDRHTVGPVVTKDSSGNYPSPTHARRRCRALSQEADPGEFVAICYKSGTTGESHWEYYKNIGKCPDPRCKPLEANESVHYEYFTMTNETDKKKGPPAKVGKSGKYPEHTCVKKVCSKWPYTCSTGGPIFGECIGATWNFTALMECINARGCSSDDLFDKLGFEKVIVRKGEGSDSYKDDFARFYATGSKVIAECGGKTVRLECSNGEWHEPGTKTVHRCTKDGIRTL
Kind of experiment: ITC; CD44 in the syringe, TGM1 protein in the cell; 25 mM sodium phosphate, 50 mM NaCl, pH 6.0, 35 °C; 1:1 binding model, global fit of two replicates. Particulars: both partners purified. A general note: Isothermal titration calorimetry measures the heat released or taken up as one component is titrated into another.

Experiment [2] addresses T2, TGM1 D4/5 (domains 4 and 5) (Heligmosomoides polygyrus, UniProt A0A2D1LW19 1-422, 125I (chloramine T) in the cross-linking assays; biotin (EZ-Link Sulfo-NHS-LC-Biotin) in the pull-downs; Alexa Fluor 488 in flow cytometry; no label named for ITC).
T2 construct: TGM1, Heligmosomoides polygyrus, GenBank MG099712, domains 4 and 5; D1/2/3 ends at aa 262 and the protein at aa 422; also called TGM1-D4/5-biotin; source: recombinant, purified
T2 sequence: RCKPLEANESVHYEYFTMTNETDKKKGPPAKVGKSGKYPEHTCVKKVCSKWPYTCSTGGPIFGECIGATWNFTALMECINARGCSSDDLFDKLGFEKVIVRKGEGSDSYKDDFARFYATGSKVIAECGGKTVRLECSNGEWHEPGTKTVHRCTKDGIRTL
Described as above. Particulars: both partners purified.

Data on 2 molecules can be found in paper PMC10450677, “CD44 acts as a coreceptor for cell-specific enhancement of signaling and regulatory T cell induction by TGM1, a parasite TGF-β mimic” (Proceedings of the National Academy of Sciences of the …, 2023).

A word on the Kd: it is the constant that tells how readily two partners part at equilibrium. A higher Kd goes with weaker binding. What is called stoichiometry N is the number of molecules, sites or subunits per partner or assembly.

B1: human CD44 hyaluronan binding domain, aa 21-169 (domain or fragment, UniProt P16070 21-169, looked up)
chain: QIDLNITCRFAGVFHVEKNGRYSISRTEAADLCKAFNSTLPTMAQMEKALSIGFETCRYGFIEGHVVIPRIHPNSICAANNTGVYILTSNTSQYDTYCFNASAPPEEDCTSVTDLPNAFDGPITITIVNRDGTRYVQKGEYRTNPEDIY
notes: also called hCD44; source: HEK293 (pcDNA3.1+), purified (HiTrap nickel chelating, Superdex 75 as needed)
In the case of B1, in experiment [1], binding was put at a Kd of 92 nM, the dH was -10.3 kcal/mol and the “stoichiometry N” value was 1.2. In experiment [2], the Kd came out at 140 nM, the dH was -9.6 kcal/mol and the “stoichiometry N” value was 1.2.

B2: mouse CD44 hyaluronan binding domain, aa 23-174 (domain or fragment, UniProt P15379 23-174, looked up)
chain: QIDLNVTCRYAGVFHVEKNGRYSISRTEAADLCQAFNSTLPTMDQMKLALSKGFETCRYGFIEGNVVIPRIHPNAICAANHTGVYILVTSNTSHYDTYCFNASAPPEEDCTSVTDLPNSFDGPVTITIVNRDGTRYSKKGEYRTHQEDIDAS
notes: also called mCD44; murine CD44; source: HEK293 (pcDNA3.1+), purified (HiTrap nickel chelating, Superdex 75 as needed)
For B2, in experiment [1], the Kd was 64 nM, the dH was -17.5 kcal/mol and the “stoichiometry N” value was found to be 0.8. Moreover, in experiment [2], the Kd turned out to be 62 nM, the dH is -19.4 kcal/mol and the “stoichiometry N” value was 1.4.
